The target in the test is RAB28 (human, UniProt P51157 2-218). As to the kind of experiment: CRBN interaction study (HA-CRBN immunoprecipitation, SILAC MS); assay not given.

B1: HA-CRBN (hemagglutinin (HA)-tagged human CRBN) (other)
chain: MAGEGDQQDAAHNMGNHLPLLPESEEEDEMEVEDQDSKEAKKPNIINFDTSLPTSHTYLGADMEEFHGRTLHDDDSCQVIPVLPQVMMILIPGQTLPLQLFHPQEVSMVRNLIQKDRTFAVLAYSNVQEREAQFGTTAEIYAYREEQDFGIEIVKVKAIGRQRFKVLELRTQSDGIQQAKVQILPECVLPSTMSAVQLESLNKCQIFPSKPVSREDQCSYKWWQKYQKRKFHCANLTSWPRWLYSLYDAETLMDRIKKQLREWDENLKDDSLPSNPIDFSYRVAACLPIDDVLRIQLLKIGSAIQRLRCELDIMNKCTSLCCKQCQETEITTKNEIFSLSLCGPMAAYVNPHGYVHETLTVYKACNLNLIGRPSTEHSWFPGYAWTVAQCKICASHIGWKFTATKKDMSPQKFWGLTRSALLPTIPDTEDEISPDKVILCL
notes: the clone used (Broad ORF007943.1_s300c1); its numbering fits V387, Y383 and W385 as printed; also called HA-tagged CRBN; HA-CBRN; not shown: HA tag
Consider B1, for which the binding result is recorded as “no binding”.

These data come from patent publication US20180343839A1 (BROAD INSTITUTE, published 2018).
